{"source": "paper PMC8287952", "about": "“PARP1 and CHK1 coordinate PLK1 enzymatic activity during the DNA damage response to promote homologous recombination-mediated repair” (Nucleic Acids Research, 2021)", "binders": {"B1": {"name": "Recombinant human active protein GST-CHK1 (enzyme, UniProt O14757 1-476, looked up)", "chain": "MAVPFVEDWDLVQTLGEGAYGEVQLAVNRVTEEAVAVKIVDMKRAVDCPENIKKEICINKMLNHENVVKFYGHRREGNIQYLFLEYCSGGELFDRIEPDIGMPEPDAQRFFHQLMAGVVYLHGIGITHRDIKPENLLLDERDNLKISDFGLATVFRYNNRERLLNKMCGTLPYVAPELLKRREFHAEPVDVWSCGIVLTAMLAGELPWDQPSDSCQEYSDWKEKKTYLNPWKKIDSAPLALLHKILVENPSARITIPDIKKDRWYNKPLKKGAKRPRVTSGGVSESPSGFSKHIQSNLDFSPVNSASSEENVKYSSSQPEPRTGLSLWDTSPSYIDKLVQGISFSQPTCPDHMLLNSQLLGTPGSSQNPWQRLVKRMTRFFTKLDADKSYQCLKETCEKLGYQWKKSCMNQVTISTTDRRNNKLIFKVNLLEMDDKILVDFRLSKGDGLEFKRHFLKIKGKLIDIVSSQKIWLPAT", "notes": "Human checkpoint kinase CHK1, recombinant active protein; source: bought: R&D Systems (1630-KS-010), produced in insect cells"}}, "target": "T1, HIS-PLK1 (UniProt P53350 1-603)", "T1 construct": "Polo-like kinase 1 (PLK1), HIS tagged, expressed in bacteria via pET28a; also called HIS tagged PLK1; source: bacterially produced (pET28a system)", "T1 sequence (P53350 whole entry)": "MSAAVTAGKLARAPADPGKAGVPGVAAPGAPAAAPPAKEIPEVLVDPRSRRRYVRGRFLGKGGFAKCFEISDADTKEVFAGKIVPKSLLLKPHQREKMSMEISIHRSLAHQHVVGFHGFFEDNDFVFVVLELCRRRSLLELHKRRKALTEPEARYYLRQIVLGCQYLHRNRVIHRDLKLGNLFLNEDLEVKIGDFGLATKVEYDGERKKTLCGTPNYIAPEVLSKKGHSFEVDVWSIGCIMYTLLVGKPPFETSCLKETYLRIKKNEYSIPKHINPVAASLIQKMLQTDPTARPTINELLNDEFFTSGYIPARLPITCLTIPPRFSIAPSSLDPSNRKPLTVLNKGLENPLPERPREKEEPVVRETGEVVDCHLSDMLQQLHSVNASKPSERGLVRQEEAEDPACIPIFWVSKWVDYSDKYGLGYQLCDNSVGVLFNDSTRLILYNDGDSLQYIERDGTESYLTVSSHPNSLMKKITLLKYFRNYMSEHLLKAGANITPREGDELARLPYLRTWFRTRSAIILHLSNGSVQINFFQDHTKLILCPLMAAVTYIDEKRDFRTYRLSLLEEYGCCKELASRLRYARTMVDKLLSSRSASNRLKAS", "test": "pull-down; GST-CHK1 (insect cells) as bait, HIS-PLK1 (bacterial) as prey; 1 μg of each in NETN buffer (20 mM Tris–HCl pH 8.0, 0.15 M NaCl, 1 mM EDTA, 0.5% NP-40), 4°C overnight; glutathione-sepharose beads; immunoblotting", "conditions": "both partners purified"}
{"binder": "B1", "values": [{"measurement": "binding result", "value": "binds"}]}
